In test [1] the target is T1, Recombinant Human DLL4 (R&D Systems Cat#1506-D4/CF) (human, UniProt Q9NR61 27-524).
T1 construct: Bought recombinant protein; also called delta-like protein 4; rHuman DLL4
Description: ECL (MSD) binding assay, immobilised DLL4, repeat experiment.

The target in test [2] is T2, rHuman Notch-1/Fc Chimera, CF (R&D Systems Cat#3647-TK) (human, UniProt P46531 19-526).
T2 construct: Bought recombinant protein
Description: ECL Multispot (MSD) assay, antigen spotted on plate, 10 nM Fab.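 Also: purified Fab bound to antigen spots for 1 h at 20 °C, then TAG detection antibody, electrochemiluminescence compared with each well's blank, ratio of 4 or more marks a hit.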

Test [3] has as its target T3, rHuman CD44/Fc Chimera, CF (R&D Systems Cat#3660-CD) (human, UniProt P16070 21-220).
T3 construct: Bought recombinant protein
The description is as above.

Test [4] addresses T4, rHuman IGF-1 sR (insulin-like growth factor-1 soluble receptor), CF (R&D Systems Cat#391-GR) (human, UniProt P08069 31-932).
T4 construct: Bought recombinant soluble receptor
The test is described as above.

Test [5] concerns the target T5, rHuman P-Cadherin/Fc Chimera, CF (R&D Systems Cat#861-PC) (human, UniProt P22223 108-654).
T5 construct: Bought recombinant protein
Described as above.

Test [6] addresses T6, rHuman Erythropoietin R/Fc Chimera, CF (R&D Systems Cat#963-ER) (human, UniProt P19235 25-250).
T6 construct: Bought recombinant protein; also called EPO R; EPO R/Fc
T6 sequence (looked up): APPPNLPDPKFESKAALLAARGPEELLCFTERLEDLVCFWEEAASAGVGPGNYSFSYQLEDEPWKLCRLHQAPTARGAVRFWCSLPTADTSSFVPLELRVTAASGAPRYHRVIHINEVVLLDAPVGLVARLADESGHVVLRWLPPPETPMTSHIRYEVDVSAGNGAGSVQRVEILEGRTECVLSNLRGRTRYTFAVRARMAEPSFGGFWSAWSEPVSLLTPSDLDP
The test is described as above.

In test [7] the target is T1, Recombinant Human DLL4 (R&D Systems …). The description is as above.
The target in test [8] is T7, rHuman ErbB2/Fc Chimera, CF (R&D Systems Cat#1129-ER) (human, UniProt P04626 23-652).
T7 construct: Bought recombinant protein
Described as above.

The target of test [9] is T8, rHuman EGF R/Fc Chimera, CF (R&D Systems Cat#344-ER) (human, UniProt P00533 25-645).
T8 construct: Bought recombinant protein
The description is as above.

For test [10], the target named is T9, rHuman HGF R/c-MET/Fc Chimera, CF (R&D Systems Cat#358-MT/CF) (human, UniProt P08581 25-932).
T9 construct: Bought recombinant protein; also called HGF R/Fc
The description is as above.

Test [11] concerns the target T1, Recombinant Human DLL4 (R&D Systems …). Description: ECL (MSD) binding assay, DLL4 signal divided by blank, repeat experiment.
For test [12], the target named is T10, rHuman Notch-1/Fc Chimera, CF (R&D Systems Cat#3647-TK) (human, UniProt P46531 19-526).
T10 construct: Bought from R&D Systems; Fc part of the bought chimera not given
Description: ECL multispot (MSD) binding assay; antigen spotted on plate, Fab in solution, Ru-labelled anti-kappa detection.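 Also: purified Fab in 1% BSA TBST incubated 1 h at 20 °C with shaking, signal compared with each well's blank, signal/blank ratio of 4 or above counted as binder.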

Test [13] has as its target T11, rHuman CD44/Fc Chimera, CF (R&D Systems Cat#3660-CD) (human, UniProt P16070 21-220).
T11 construct: Bought from R&D Systems; Fc part of the bought chimera not given
The description is as above.

In test [14] the target is T12, rHuman IGF-1 sR, CF (R&D Systems Cat#391-GR) (human, UniProt P08069 31-932).
T12 construct: Bought from R&D Systems as a soluble receptor; also called insulin-like growth factor-1 soluble receptor
The test is described as above.

The target of test [15] is T13, rHuman P-Cadherin/Fc Chimera, CF (R&D Systems Cat#861-PC) (human, UniProt P22223 108-654).
T13 construct: Bought from R&D Systems; Fc part of the bought chimera not given
The description is as above.

Test [16] concerns the target T14, rHuman Erythropoietin R/Fc Chimera, CF (R&D Systems Cat#963-ER) (human, UniProt P19235 25-250).
T14 construct: Bought from R&D Systems; also called EPO R; EPO R/Fc; Fc part of the bought chimera not given
T14 sequence (looked up): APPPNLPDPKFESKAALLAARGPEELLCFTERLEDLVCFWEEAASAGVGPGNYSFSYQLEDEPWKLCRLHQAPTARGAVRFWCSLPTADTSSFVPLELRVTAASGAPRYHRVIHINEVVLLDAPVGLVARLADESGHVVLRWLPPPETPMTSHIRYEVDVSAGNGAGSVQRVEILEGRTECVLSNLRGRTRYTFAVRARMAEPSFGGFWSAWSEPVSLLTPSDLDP
The description is as above.

Test [17] deals with T15, Recombinant Human DLL4 (R&D Systems Cat#1506-D4/CF) (human, UniProt Q9NR61 27-524).
T15 construct: Bought from R&D Systems; also called delta-like protein 4; rHuman DLL4
The description is as above.

For test [18], the target named is T16, rHuman ErbB2/Fc Chimera, CF (R&D Systems Cat#1129-ER) (human, UniProt P04626 23-652).
T16 construct: Bought from R&D Systems; also called human epidermal growth factor 2 receptor; Fc part of the bought chimera not given
The test is described as above.

In test [19] the target is T17, rHuman EGF R/Fc Chimera, CF (R&D Systems Cat#344-ER) (human, UniProt P00533 25-645).
T17 construct: Bought from R&D Systems; also called epidermal growth factor receptor; Fc part of the bought chimera not given
The description is as above.

Test [20] addresses T18, rHuman HGF R/c-MET/Fc Chimera, CF (R&D Systems Cat#358-MT/CF) (human, UniProt P08581 25-932).
T18 construct: Bought from R&D Systems; also called HGF R/Fc; hepatocyte growth factor receptor; Fc part of the bought chimera not given
The description is as above.

ECL signal and Signal/Noise data for six molecules are collected here from patent publication US20120316071A1 (published 2012).

B1: Fab VH1-46_IGHD6-6*01_IGHJ1*01 S102A/S103P/S104F/H111F T30A & L6_IGKJ1*01 (Fab, V domains shown)
VH: QVQLVQSGAEVKKPGASVKVSCKASGYTFASYYMHWVRQAPGQGLEWMGIINPSGGSTSYAQKFQGRVTMTRDTSTSTVYMELSSLRSEDTAVYYCAREEYAPFSAEYFQFWGQGTLVTVSS
VL: not shown
notes: Fab as for m1 (CH1 with His6/Flag tags, kappa CL); also called APFF T30A
As for B1, the ECL signal in test [1] was 178000; in test [2], 270; in test [3] it was 439; in [4], 356; in test [5], 275; in test [6], 428. For the same molecule, the ECL signal in test [7] came out at 140000; in [8] it was 272; in test [9] it was 427; in test [10], 413. Moreover, the Signal/Noise in [11] was found to be 503.

B2: Fab VH1-46_IGHD6-6*01_IGHJ1*01 S102A/S103P/S104F/H111F T28A & L6_IGKJ1*01 (Fab, V domains shown)
VH: QVQLVQSGAEVKKPGASVKVSCKASGYAFTSYYMHWVRQAPGQGLEWMGIINPSGGSTSYAQKFQGRVTMTRDTSTSTVYMELSSLRSEDTAVYYCAREEYAPFSAEYFQFWGQGTLVTVSS
VL: not shown
notes: Tested as a Fab made in E. coli; The heavy chain vector (Plasmid A) adds CH1 with His6 and Flag tags; The light chain vector (Plasmid C) adds kappa CL; also called APFF T28A
As to B2, the ECL signal in test [12] is 478; in test [13], 497; in test [14], 377; in test [15], 477; in test [16], 477; in test [17] it was 181000. The results for the ECL signal in test [18], in test [19] and in test [20] were 316, 329 and 353, respectively.

B3: Fab VH1-46_IGHD6-6*01_IGHJ1*01 S102A/S103P/S104F/H111F Y33A & L6_IGKJ1*01 (Fab, V domains shown)
VH: QVQLVQSGAEVKKPGASVKVSCKASGYTFTSYAMHWVRQAPGQGLEWMGIINPSGGSTSYAQKFQGRVTMTRDTSTSTVYMELSSLRSEDTAVYYCAREEYAPFSAEYFQFWGQGTLVTVSS
VL: not shown
notes: Fab as for m1 (CH1 with His6/Flag tags, kappa CL); also called APFF Y33A
In the case of B3, the ECL signal is 59500 in [1]; 244 in [2]; 294 in test [3]; 308 in [4]; 383 in test [5]; 373 in test [6]. The ECL signal in test [7] was 27000; in [8], 394; in [9], 372; in test [10], 345. Moreover, the Signal/Noise in [11] came to 225.

B4: Fab VH1-46_IGHD6-6*01_IGHJ1*01 S102A/S103P/S104F/H111F T30A & L6_IGKJ1*01 (Fab, V domains shown)
VH: QVQLVQSGAEVKKPGASVKVSCKASGYTFASYYMHWVRQAPGQGLEWMGIINPSGGSTSYAQKFQGRVTMTRDTSTSTVYMELSSLRSEDTAVYYCAREEYAPFSAEYFQFWGQGTLVTVSS
VL: not shown
notes: Tested as a Fab made in E. coli; The heavy chain vector (Plasmid A) adds CH1 with His6 and Flag tags; The light chain vector (Plasmid C) adds kappa CL; also called APFF T30A
Regarding B4, the ECL signal was 368 in test [12]; 396 in [13]; 343 in test [14]; 337 in test [15]; 479 in [16]; 178000 in test [17]. Also, the ECL signal in test [18] came to 408; in test [19], 351; in test [20] it was 353.

B5: Fab VH1-46_IGHD6-6*01_IGHJ1*01 S102A/S103P/S104F/H111F Y33A & L6_IGKJ1*01 (Fab, V domains shown)
VH: QVQLVQSGAEVKKPGASVKVSCKASGYTFTSYAMHWVRQAPGQGLEWMGIINPSGGSTSYAQKFQGRVTMTRDTSTSTVYMELSSLRSEDTAVYYCAREEYAPFSAEYFQFWGQGTLVTVSS
VL: not shown
notes: Tested as a Fab made in E. coli; The heavy chain vector (Plasmid A) adds CH1 with His6 and Flag tags; The light chain vector (Plasmid C) adds kappa CL; also called APFF Y33A
As for B5, the ECL signal in test [12] came out at 334; in test [13] it was 290; in test [14], 227; in test [15] it was 178; in [16], 430; in [17] it was 59500. For the same molecule, the ECL signal stood at 298 in [18], 281 in [19] and 248 in test [20].

B6: Fab VH1-46_IGHD6-6*01_IGHJ1*01 S102A/S103P/S104F/H111F S31A & L6_IGKJ1*01 (Fab, V domains shown)
VH: QVQLVQSGAEVKKPGASVKVSCKASGYTFTAYYMHWVRQAPGQGLEWMGIINPSGGSTSYAQKFQGRVTMTRDTSTSTVYMELSSLRSEDTAVYYCAREEYAPFSAEYFQFWGQGTLVTVSS
VL: not shown
notes: Tested as a Fab made in E. coli; The heavy chain vector (Plasmid A) adds CH1 with His6 and Flag tags; The light chain vector (Plasmid C) adds kappa CL; also called APFF S31A
B6: the ECL signal in [12] came out at 427; in test [13], 235; in test [14] it was 268; in [15] it was 262; in [16] it was 507; in [17] it was 176000. In addition, the values for the ECL signal in [18], in test [19] and in test [20] were 253, 377 and 358, respectively.
